assay: yeast display, Sf9 membrane polyspecificity reagent, FACS + sequencing; frameworks hold sequencing errors
Method in brief: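 Galactose-induced (36–48 hours) yeast carrying a synthetic nanobody display library were exposed to 10% biotinylated, detergent-solubilized Sf9 membrane reagent at 4 °C for 1 hour. FACS followed streptavidin microbead enrichment, using low and high (top ~1%) gates for expression (anti-HA) and reagent binding (streptavidin). Colony PCR, MiSeq 2 × 250 sequencing and CDR-length filtering followed. Labels for polyreactivity reflect the gate of origin.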

| Sequence | polyreactivity (PSR sort gate) |
| --- | --- |
| QVQLVESGGGLVQAGGSLRLSCAASGSIFYRYAMGWYRQAPGKERELVAAISSNGVSTYYADSVKGRFTISRDNAKNTVYLQMNSLKPEDTAVYYCARDVYASPRLYTSRYNYWGQGTQVTVSS | low polyreactivity |
| QVQLVESGGGLVQAGGSLRLSCAASGSIFYRYAMGWYRQAPGKERELVASISKSGGSTYYADSVKGRFTISRDNAKNTVYLQMNSLKPEDTAVYYCAKKPRGTVYRFDYWGQGTQVTVSS | high polyreactivity |
| QVQLVESGGGLVQAGGSLRLSCAASGSIFYRYAMGWYRQAPGKERELVASISSGVSTNYADSVKGRFTISRDNAKNTVYLQLNSLKPEDTAVYYCAVRHRYTRAYWGRDYWGQGTQVTVSS | low polyreactivity |
| QVQLVESGGGLVQAGGSLRLSCAASGSIFYRYAMGWYRQAPGKERELVATISSGGRTYYADSVKGRFTISRDNAKNTVYLQMNSLKPEVTAVYYCAAKRFSSPYWEYYWGQGTQVTVSS | high polyreactivity |
| QVQLVESGGGLVQAGGSLRLSCAASGSIFYRYAMGWYRQAPGKVRELVAAINNGGGRTYADSVKGRFTISRDNAKNTVYFQMNSLKPEDTAVYYCAKRTSRLAPYDYWGQGTQVTVSS | high polyreactivity |
| QVQLVESGGGLVQAGGSLRLSCAASGSIFYRYAMGWYRQGPGKERELVAGITRGGSTNYADSVKGRFTISRDNAMNTVYLQMNSLKPEDTAVYYCAARSYVYVHYYYWGQGTQVTVSS | high polyreactivity |
| QVQLVESGGGLVQAGGSLRLSCAASGSIFYRYSMGWYRQAPGKEREFVAAITWSGGSTYYADSVKGRFTISRDNAKNTVYLQMNSLKPEDTAVYYCAKDSGSYRVGIYEPFPYGYWGQGTQVTVSS | low polyreactivity |
| QVQLVESGGGLVQAGGSLRLSCAASGSIFYSNAMGWSRQAPGKEREFVAAISAGGGSTYYADSVKGRFTISRDNATNTVYLQMISLKPEDTAVYYCAADYFYPYYGAMDYWGQGTQVTVSS | low polyreactivity |
| QVQLVESGGGLVQAGGSLRLSCAASGSIFYSNAMGWYRQAPGKEREFVAAISAGGGSTYYADSVKGRFTISRDNAKNTVYLQMNSLKPEDTAVYYCAATDEYYIQVWFPYDYWGQGTQVTVSW | low polyreactivity |
| QVQLVESGGGLVQAGGSLRLSCAASGSIFYSNAMGWYRQAPGNERELVAAITYRGGRTYYADSVKGRFTISRDNAKNTVYLQKNSLKPEDTAVDYCAKVVRAQALDSIYNGRYDYWGEGTQVTVSS | low polyreactivity |
| QVQLVESGGGLVQAGGSLRLSCAASGSIFYSNAMVWYRQAPGKEREFVAAISTSAGRTYYADSVKGRFTISRDNAKNKVYLQLNSLNPEDTEVYYCAAGTNYGKLRIRFDYWGQGTQVTVSS | low polyreactivity |
| QVQLVESGGGLVQAGGSLRLSCAASGSIFYSNTMGWYRQAPGKERELVAAISSSSGRTYYADSVKGRFTISRDNAKNTGFLQMNSLKPEDTAVYYCARRYGWGQGTQVTVSS | high polyreactivity |
| QVQLVESGGGLVQAGGSLRLSCAASGSIFYSYAMGWYRQAPGKARELVATISWAGGRTNYADSVKGRFTISRDNAKNTEYLQMNSLKPEDTAVSYCNKPFPYYPDGPNGYDYWGQGTQVTVSS | low polyreactivity |
| QVQLVESGGGLVQAGGSLRLSCAASGSIFYSYAMGWYRQAPGKERELVAAISWDASTYYADSVKGRFTISRDNAKNTVDLQMNSLKPEDTAVYYCNKRWFAPPPYSYVRSYDYWGQGTQVTVSS | low polyreactivity |
| QVQLVESGGGLVQAGGSLRLSCAASGSIFYSYMGWYRQAPGKERECVAAINQRGSSTYYADSVKGRFTISRDNAKNTVYLQMNSLKPEDTAVYDCAAVFFGVYTSRRYYWGQGTQVTVSS | high polyreactivity |
| QVQLVESGGGLVQAGGSLRLSCAASGSIFYTNAMGWYRQAPGKERELVAAIRWSGGRTYYADSVKGRFTISRDNAKNTVYLQMNSLKPEDTAVYYCNVVVRYPSAYDYWGQGTQVTVSS | high polyreactivity |

| Sequence | polyreactivity (PSR sort gate) |
| --- | --- |
| QVQLVESGGGLVQAGGSLRLSCAASGSIFYTNAMGWYRQAPGKERELVAAITNGSSTNYADSVKGRFTISRDNAKNTVYLQMNSLNPEDTAVYYCAKYFGNYSIYDYWGQGTQVTVSS | low polyreactivity |
| QVQLVESGGGLVQAGGSLRLSCAASGSIFYTNAMGWYRQAPGKERELVAAITRTGSTNYADSVKGRFTISRDNAKNTVYLQMNSLKPEDTAVYYCNARRYYRYGYWGQGTQVTVSS | high polyreactivity |
| QVQLVESGGGLVQAGGSLRLSCAASGSIFYTNAMGWYRQAPGKERELVAAITWSGGRTYYADSVKGRFTISRDIAKNTVYLQMNSLKPEDTAVYYCNREGWHYGPYGYWGQGTQVTVSS | low polyreactivity |
| QVQLVESGGGLVQAGGSLRLSCAASGSIFYTNAMGWYRQAPGKERELVATITSSTGSTNYADSVKGRFTISRDNAKNTVYLQMNSLKPEDTAVYYCAKRDCYWVYYQMDYWGQGTQVTVSS | low polyreactivity |
| QVQLVESGGGLVQAGGSLRLSCAASGSIFYTNVMGWYRQAPGKERELVARIDSGGSTNYADSVKGRFTISRDNAKNTVFLQMNSLNPEDTAVYYCAADWYIYDYWGQGTQVTVSS | low polyreactivity |
| QVQLVESGGGLVQAGGSLRLSCAASGSIFYTNVMGWYRQAPGKERELVAVISSGGSTYYADSVKGRFTISRDNAKNTVYFQMNSLKPEDTAGYYCNADSVSSPPYYDYWGQGTQVTVSS | high polyreactivity |
| QVQLVESGGGLVQAGGSLRLSCAASGSIFYTYAMGWYRQAPGKERELVAAINWSGGRTYYADSVKGRFTISRDNAKNTVYLQMNSLTPEDTAVYSCAARRGRSWGGFDYWGQGTQVTVSS | low polyreactivity |
| QVQLVESGGGLVQAGGSLRLSCAASGSIFYTYTMGWYRQAPGKERELVAAISRGGRTYYADSVKGRFTISRDNAKNTVYLQMNSLKPEDTAVYYCAAYGYGSWGQGTQVTVSS | high polyreactivity |
| QVQLVESGGGLVQAGGSLRLSCAASGSIFYVNAMGWYRQAPGKERELVAAISYRGGSTYYADSVKGRFTISRDNAKNTVYLQMNSLKPEDTAVYYCAARGYYRPSQTTGRIKYDYWGQGTQVTVSS | high polyreactivity |
| QVQLVESGGGLVQAGGSLRLSCAASGSIFYVNGMGWSRQAPGKERELVARITLSGTSTYYADSVKGRFTISRDNAKNTVYLQMNSLKPEDTAVYYCAAPYFTYGQDDDDYWGQGTQVTVSS | low polyreactivity |
| QVQLVESGGGLVQAGGSLRLSCAASGSIFYVYAMGRYRQAPGKERELVASINKSGGSTYYADSVKGRFTISRDNAKNTVYLQMNSLKPEDTAVYYCAARTGWPRVGFQYPAHVGFDYWGQGTQVTVSS | low polyreactivity |
| QVQLVESGGGLVQAGGSLRLSCAASGSIFYVYAMGWYRQAPGKERELVAAISSSAGSTYYADSVKGRFTISRDNAKNTVYLQMNSLKPEDTAVYYCAAKVRYSLRKYYYWGQGTQVTVSS | high polyreactivity |
| QVQLVESGGGLVQAGGSLRLSCAASGSIFYVYAMGWYRQAPGKERELVAAITARVTSTYYADSVKGRFTISRDNAKNTVYLQMNRLKPEDTADYYCAARTSYKTGYRKYDYWGQGTQVTVSS | low polyreactivity |
| QVQLVESGGGLVQAGGSLRLSCAASGSIFYVYAMGWYRQAPGKERELVAAITNYADSVKGRFTISRDNAKNTVYLQMNSLKPEDTAVYYCAADWWRVEMDYWGQGTEVTVSS | low polyreactivity |
| QVQLVESGGGLVQAGGSLRLSCAASGSIFYVYAMGWYRQAPGKERELVAAITSGGSTNYADSVKGRFTISRDNAKNTVYLQMNSLKPEDTAVYYCAAAWENIWVWQEYIEYDYWGQGTQVTVSS | low polyreactivity |
| QVQLVESGGGLVQAGGSLRLSCAASGSIFYVYAMGWYSQARGKEMELVAAISSSAGSTYYADSVKVRFTISRDNAKTTVYLQINSLIPEDTAVDYCAAKVRYSLRKYYYWGQGTQVTVSS | high polyreactivity |

Source: the nanobody polyreactivity screen of Harvey et al. (2022)
